B1: Prelamin-A/C (Homo sapiens), P02545 (parent)
chain: METPSQRRATRSGAQASSTPLSPTRITRLQEKEDLQELNDRLAVYIDRVRSLETENAGLRLRITESEEVVSREVSGIKAAYEAELGDARKTLDSVAKERARLQLELSKVREEFKELKARNTKKEGDLIAAQARLKDLEALLNSKEAALSTALSEKRTLEGELHDLRGQVAKLEAALGEAKKQLQDEMLRRVDAENRLQTMKEELDFQKNIYSEELRETKRRHETRLVEIDNGKQREFESRLADALQELRAQHEDQVEQYKKELEKTYSAKLDNARQSAERNSNLVGAAHEELQQSRIRIDSLSAQLSQLQKQLAAKEAKLRDLEDSLARERDTSRRLLAEKEREMAEMRARMQQQLDEYQELLDIKLALDMEIHAYRKLLEGEEERLRLSPSPTSQRSRGRASSHSSQTQGGGSVTKKRKLESTESRSSFSQHARTSGRVAVEEVDEEGKFVRLRNKSNEDQSMGNWQIKRQNGDDPLLTYRFPPKFTLKAGQVVTIWAAGAGATHSPPTDLVWKAQNTWGCGNSLRTALINSTGEEVAMRKLVRSVTVVEDDEDEDGDDLLHHHHGSHCSSSGDPAEYNLRSRTVLCGTCGQPADKASASGSGAQVGGPISSGSSASSVTVTRSYRSVGGSGGGSFGDNLVTRSYLLGNSSPRTQSPQNCSIM
partner: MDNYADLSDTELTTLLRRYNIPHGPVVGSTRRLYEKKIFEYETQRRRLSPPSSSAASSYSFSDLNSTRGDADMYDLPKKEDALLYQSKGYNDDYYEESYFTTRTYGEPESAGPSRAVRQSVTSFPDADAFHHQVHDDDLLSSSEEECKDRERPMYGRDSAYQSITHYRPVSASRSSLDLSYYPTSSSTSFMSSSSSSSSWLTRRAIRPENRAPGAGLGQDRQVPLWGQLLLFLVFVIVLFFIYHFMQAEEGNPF

Variants of: B1
Settings: with emd_human EMD

Variant | effect of a mutation on the interaction
R482L | decreasing interaction strength

— IntAct's records for PubMed 14597414
